# T1: APBA3_1, O96018
# T1 sequence (O96018 389-490, limits assumed, looked up): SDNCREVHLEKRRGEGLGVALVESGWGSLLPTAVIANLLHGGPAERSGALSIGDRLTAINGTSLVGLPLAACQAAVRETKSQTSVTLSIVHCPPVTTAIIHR
# T2: DFNB31_1, Q9P202
# T2 sequence (Q9P202 135-233, limits assumed, looked up): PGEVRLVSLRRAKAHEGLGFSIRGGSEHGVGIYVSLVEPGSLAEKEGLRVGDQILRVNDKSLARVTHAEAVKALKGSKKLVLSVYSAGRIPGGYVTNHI
# T3: DFNB31_3, Q9P202
# T3 sequence (Q9P202 811-907, limits assumed, looked up): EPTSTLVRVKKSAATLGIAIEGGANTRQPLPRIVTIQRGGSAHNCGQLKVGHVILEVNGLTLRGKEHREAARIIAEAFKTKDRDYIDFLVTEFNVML
# T4: DLG3_3, Q92796
# T4 sequence (Q92796 374-475, limits assumed, looked up): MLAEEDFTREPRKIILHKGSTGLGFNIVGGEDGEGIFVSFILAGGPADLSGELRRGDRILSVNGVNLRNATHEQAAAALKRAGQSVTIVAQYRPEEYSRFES
# T5: LNX2_2, Q8N448
# T5 sequence (Q8N448 334-432, limits assumed, looked up): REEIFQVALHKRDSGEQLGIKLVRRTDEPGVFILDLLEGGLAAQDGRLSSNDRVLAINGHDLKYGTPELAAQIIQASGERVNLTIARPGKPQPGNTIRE
# T6: MPDZ_12, O75970
# T6 sequence (O75970 1857-1958, limits assumed, looked up): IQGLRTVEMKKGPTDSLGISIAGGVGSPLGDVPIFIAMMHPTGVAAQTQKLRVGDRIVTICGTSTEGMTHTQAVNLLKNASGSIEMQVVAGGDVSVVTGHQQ
# T7: MPP2, Q14168
# T7 sequence (Q14168 180-250, limits assumed, looked up): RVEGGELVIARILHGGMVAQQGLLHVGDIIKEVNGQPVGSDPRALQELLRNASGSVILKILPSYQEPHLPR
# T8: MPP6, Q9NZW5
# T8 sequence (Q9NZW5 125-219, limits assumed, looked up): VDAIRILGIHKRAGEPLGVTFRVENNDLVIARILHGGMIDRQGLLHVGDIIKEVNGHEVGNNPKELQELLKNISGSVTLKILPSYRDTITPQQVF
# T9: PDZD7_3, Q9H5P4
# T9 sequence (Q9H5P4 857-944, limits assumed, looked up): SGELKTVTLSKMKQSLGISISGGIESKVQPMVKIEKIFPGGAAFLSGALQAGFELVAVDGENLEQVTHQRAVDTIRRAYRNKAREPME
# T10: SHANK1, Q9Y566
# T10 sequence (Q9Y566 658-767, limits assumed, looked up): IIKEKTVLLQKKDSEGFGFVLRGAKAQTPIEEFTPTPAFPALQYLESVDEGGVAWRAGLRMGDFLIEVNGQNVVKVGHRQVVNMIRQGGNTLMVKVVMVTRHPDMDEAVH
# Tests used:
# Assay in all cases: holdup assay
# Parameters in all cases: key: below the threshold = too weak to quantify, mostly under pKd 3.1 to 4
# Conditions in all cases: plain residues with an end cap or a label only (N-terminal biotin on a linker: ado-ado)
# [1] = molecular target: T1, APBA3_1, O96018
# [2] = molecular target: CASK, O14936
# [3] = molecular target: T2, DFNB31_1, Q9P202
# [4] = molecular target: T3, DFNB31_3, Q9P202
# [5] = molecular target: T4, DLG3_3, Q92796
# [6] = molecular target: DLG4_1, P78352
# [7] = molecular target: DLG4_2, P78352
# [8] = molecular target: FRMPD3, Q5JV73
# [9] = molecular target: GRIP2_3, Q9C0E4
# [10] = molecular target: GRIP2_4, Q9C0E4
# [11] = molecular target: GRIP2_5, Q9C0E4
# [12] = molecular target: GRIP2_6, Q9C0E4
# [13] = molecular target: IL16_3, Q14005
# [14] = molecular target: Inadl_1, Q8NI35
# [15] = molecular target: Inadl_8, Q8NI35
# [16] = molecular target: LDB3, O75112
# [17] = molecular target: LIMK2, P53671
# [18] = molecular target: T5, LNX2_2, Q8N448
# [19] = molecular target: MAGI2_4, Q86UL8
# [20] = molecular target: MAGI2_6, Q86UL8
# [21] = molecular target: MAGI3_2, Q5TCQ9
# [22] = molecular target: T6, MPDZ_12, O75970
# [23] = molecular target: T7, MPP2, Q14168
# [24] = molecular target: T8, MPP6, Q9NZW5
# [25] = molecular target: T9, PDZD7_3, Q9H5P4
# [26] = molecular target: PTPN3, P26045
# [27] = molecular target: SCRIB_3, Q14160
# [28] = molecular target: T10, SHANK1, Q9Y566
# [29] = molecular target: TJP1_3, Q07157
# Chain of TJP1_3, Q07157 (Q07157 416-512): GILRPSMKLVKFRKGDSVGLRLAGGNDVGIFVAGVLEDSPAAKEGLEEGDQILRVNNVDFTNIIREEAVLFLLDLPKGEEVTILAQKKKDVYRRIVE
# Chain of FRMPD3, Q5JV73 (Q5JV73 12-100): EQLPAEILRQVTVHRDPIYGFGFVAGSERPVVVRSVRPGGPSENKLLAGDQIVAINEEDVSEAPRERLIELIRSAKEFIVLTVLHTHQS
# Chain of IL16_3, Q14005 (Q14005 1107-1207): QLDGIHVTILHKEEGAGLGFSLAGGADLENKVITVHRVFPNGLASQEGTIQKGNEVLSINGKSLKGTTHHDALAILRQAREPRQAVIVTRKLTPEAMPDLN
# Chain of GRIP2_4, Q9C0E4 (Q9C0E4 446-548): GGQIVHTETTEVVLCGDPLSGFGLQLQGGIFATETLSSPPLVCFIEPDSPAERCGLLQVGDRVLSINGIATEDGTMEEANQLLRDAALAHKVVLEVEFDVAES
# Chain of DLG4_2, P78352 (P78352 155-259): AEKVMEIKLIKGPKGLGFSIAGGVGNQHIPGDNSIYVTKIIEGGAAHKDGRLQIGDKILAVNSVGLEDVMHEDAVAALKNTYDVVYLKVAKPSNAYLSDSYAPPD
# Chain of CASK, O14936 (O14936 487-570): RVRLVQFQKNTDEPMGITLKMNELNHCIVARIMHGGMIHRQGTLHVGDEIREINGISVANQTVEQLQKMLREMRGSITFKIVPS
# Chain of LDB3, O75112 (O75112 1-94): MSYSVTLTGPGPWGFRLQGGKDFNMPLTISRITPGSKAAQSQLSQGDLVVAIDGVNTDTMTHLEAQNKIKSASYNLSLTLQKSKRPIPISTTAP
# Chain of DLG4_1, P78352 (P78352 62-152): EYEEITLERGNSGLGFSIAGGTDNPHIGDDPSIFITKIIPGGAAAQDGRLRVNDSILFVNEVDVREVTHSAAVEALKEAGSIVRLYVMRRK
# Chain of SCRIB_3, Q14160 (Q14160 999-1103): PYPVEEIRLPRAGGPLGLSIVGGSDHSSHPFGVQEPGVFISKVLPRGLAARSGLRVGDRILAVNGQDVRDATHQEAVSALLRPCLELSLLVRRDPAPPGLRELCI
# Chain of MAGI2_6, Q86UL8 (Q86UL8 1141-1229): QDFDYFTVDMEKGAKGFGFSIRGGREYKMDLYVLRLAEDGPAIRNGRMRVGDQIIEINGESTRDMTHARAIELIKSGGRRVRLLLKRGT
# Chain of Inadl_8, Q8NI35 (Q8NI35 1425-1530): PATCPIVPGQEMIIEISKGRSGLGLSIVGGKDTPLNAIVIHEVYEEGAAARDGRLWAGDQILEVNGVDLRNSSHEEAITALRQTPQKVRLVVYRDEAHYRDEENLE
# Chain of PTPN3, P26045 (P26045 505-587): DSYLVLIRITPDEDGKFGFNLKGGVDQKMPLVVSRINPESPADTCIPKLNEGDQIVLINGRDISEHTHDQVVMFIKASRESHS
# Chain of GRIP2_3, Q9C0E4 (Q9C0E4 238-339): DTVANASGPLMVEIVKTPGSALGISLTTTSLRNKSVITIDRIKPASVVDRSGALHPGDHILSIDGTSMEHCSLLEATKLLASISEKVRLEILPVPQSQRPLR
# Chain of MAGI2_4, Q86UL8 (Q86UL8 772-865): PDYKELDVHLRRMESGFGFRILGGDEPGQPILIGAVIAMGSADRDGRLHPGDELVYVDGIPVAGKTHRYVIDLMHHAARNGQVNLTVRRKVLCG
# Chain of MAGI3_2, Q5TCQ9 (Q5TCQ9 398-503): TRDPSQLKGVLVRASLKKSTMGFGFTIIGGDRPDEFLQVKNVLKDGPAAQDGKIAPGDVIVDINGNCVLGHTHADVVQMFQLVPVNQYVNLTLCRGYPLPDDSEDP
# Chain of GRIP2_6, Q9C0E4 (Q9C0E4 648-740): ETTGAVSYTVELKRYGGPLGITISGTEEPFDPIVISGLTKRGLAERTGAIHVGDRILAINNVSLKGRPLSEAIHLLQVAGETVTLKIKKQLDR
# Chain of Inadl_1, Q8NI35 (Q8NI35 113-229): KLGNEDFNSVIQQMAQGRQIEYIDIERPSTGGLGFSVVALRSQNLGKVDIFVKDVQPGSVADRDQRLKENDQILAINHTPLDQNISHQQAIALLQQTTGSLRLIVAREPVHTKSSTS
# Chain of GRIP2_5, Q9C0E4 (Q9C0E4 544-642): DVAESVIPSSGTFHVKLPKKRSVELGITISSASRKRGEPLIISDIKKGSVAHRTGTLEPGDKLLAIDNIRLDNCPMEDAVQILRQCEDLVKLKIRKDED
# Chain of LIMK2, P53671 (P53671 143-248): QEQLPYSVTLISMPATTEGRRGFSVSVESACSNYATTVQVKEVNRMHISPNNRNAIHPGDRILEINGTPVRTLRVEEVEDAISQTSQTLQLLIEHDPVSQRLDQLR
Binder,pKd [1],pKd [2],pKd [3],pKd [4],pKd [5],pKd [6],pKd [7],pKd [8],pKd [9],pKd [10],pKd [11],pKd [12],pKd [13],pKd [14],pKd [15],pKd [16],pKd [17],pKd [18],pKd [19],pKd [20],further results
"QKASRNESTF [POLR1D, P0DPB6]",below the threshold,below the threshold,below the threshold,below the threshold,3.6,below the threshold,below the threshold,below the threshold,below the threshold,below the threshold,below the threshold,below the threshold,below the threshold,below the threshold,below the threshold,below the threshold,below the threshold,below the threshold,3.88,below the threshold,pKd [21]: below the threshold; pKd [22]: below the threshold; pKd [23]: below the threshold; pKd [24]: below the threshold; pKd [25]: 3.71; pKd [26]: 4.62; pKd [27]: 4.12; pKd [28]: below the threshold; pKd [29]: below the threshold
"KEKASTETEC [TRPM1, Q7Z4N2]",below the threshold,below the threshold,below the threshold,3.64,below the threshold,3.88,3.9,below the threshold,below the threshold,below the threshold,below the threshold,below the threshold,below the threshold,below the threshold,below the threshold,below the threshold,below the threshold,below the threshold,below the threshold,below the threshold,pKd [21]: below the threshold; pKd [22]: below the threshold; pKd [23]: below the threshold; pKd [24]: below the threshold; pKd [25]: below the threshold; pKd [26]: 4.9; pKd [27]: 4.23; pKd [28]: below the threshold; pKd [29]: below the threshold
"RDYTQSSSSL [GRM5, P41594]",below the threshold,below the threshold,below the threshold,below the threshold,below the threshold,below the threshold,below the threshold,below the threshold,below the threshold,below the threshold,below the threshold,below the threshold,below the threshold,below the threshold,below the threshold,below the threshold,below the threshold,below the threshold,below the threshold,3.49,pKd [21]: below the threshold; pKd [22]: below the threshold; pKd [23]: below the threshold; pKd [24]: below the threshold; pKd [25]: below the threshold; pKd [26]: 4.27; pKd [27]: 4.05; pKd [28]: 4.7; pKd [29]: below the threshold

# Reference: PMC9482650, “Quantitative fragmentomics allow affinity mapping of interactomes” (Nature Communications, 2022)
